Source: patent publication US20190262431

Biological target: active (phosphorylated) human Syk (Merck Millipore) (UniProt P43405)

Substance: catalytically inactive human C373A Cbl-b^29-483 mutant (recombinant, GST fusion protein)
- in vitro poly-ubiquitination of active Syk (Western blot): did not show Syk poly-ubiquitination activity
